The values that follow come from paper PMC5382714.

Common to all, as to experiment: co-IP
One assay concerns the target GFP-tagged GRIP1 (UniProt P97879).
A further assay concerns the target GFP-tagged Rab4 (UniProt P20338).
Assay [1] addresses Syntaxin13 (Stx13), endogenous in HEK cells (human (endogenous in HEK293T)) (UniProt Q86Y82).
Chain of UniProt Q86Y82 (Q86Y82 whole entry): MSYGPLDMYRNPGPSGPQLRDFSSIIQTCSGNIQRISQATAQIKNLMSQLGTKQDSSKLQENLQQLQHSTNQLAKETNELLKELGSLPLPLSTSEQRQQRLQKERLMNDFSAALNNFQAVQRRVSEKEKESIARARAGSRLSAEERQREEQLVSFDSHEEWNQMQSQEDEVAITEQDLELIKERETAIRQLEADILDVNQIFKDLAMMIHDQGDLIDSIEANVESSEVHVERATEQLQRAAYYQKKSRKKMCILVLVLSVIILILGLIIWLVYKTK

Chain of UniProt P97879 (P97879 whole entry): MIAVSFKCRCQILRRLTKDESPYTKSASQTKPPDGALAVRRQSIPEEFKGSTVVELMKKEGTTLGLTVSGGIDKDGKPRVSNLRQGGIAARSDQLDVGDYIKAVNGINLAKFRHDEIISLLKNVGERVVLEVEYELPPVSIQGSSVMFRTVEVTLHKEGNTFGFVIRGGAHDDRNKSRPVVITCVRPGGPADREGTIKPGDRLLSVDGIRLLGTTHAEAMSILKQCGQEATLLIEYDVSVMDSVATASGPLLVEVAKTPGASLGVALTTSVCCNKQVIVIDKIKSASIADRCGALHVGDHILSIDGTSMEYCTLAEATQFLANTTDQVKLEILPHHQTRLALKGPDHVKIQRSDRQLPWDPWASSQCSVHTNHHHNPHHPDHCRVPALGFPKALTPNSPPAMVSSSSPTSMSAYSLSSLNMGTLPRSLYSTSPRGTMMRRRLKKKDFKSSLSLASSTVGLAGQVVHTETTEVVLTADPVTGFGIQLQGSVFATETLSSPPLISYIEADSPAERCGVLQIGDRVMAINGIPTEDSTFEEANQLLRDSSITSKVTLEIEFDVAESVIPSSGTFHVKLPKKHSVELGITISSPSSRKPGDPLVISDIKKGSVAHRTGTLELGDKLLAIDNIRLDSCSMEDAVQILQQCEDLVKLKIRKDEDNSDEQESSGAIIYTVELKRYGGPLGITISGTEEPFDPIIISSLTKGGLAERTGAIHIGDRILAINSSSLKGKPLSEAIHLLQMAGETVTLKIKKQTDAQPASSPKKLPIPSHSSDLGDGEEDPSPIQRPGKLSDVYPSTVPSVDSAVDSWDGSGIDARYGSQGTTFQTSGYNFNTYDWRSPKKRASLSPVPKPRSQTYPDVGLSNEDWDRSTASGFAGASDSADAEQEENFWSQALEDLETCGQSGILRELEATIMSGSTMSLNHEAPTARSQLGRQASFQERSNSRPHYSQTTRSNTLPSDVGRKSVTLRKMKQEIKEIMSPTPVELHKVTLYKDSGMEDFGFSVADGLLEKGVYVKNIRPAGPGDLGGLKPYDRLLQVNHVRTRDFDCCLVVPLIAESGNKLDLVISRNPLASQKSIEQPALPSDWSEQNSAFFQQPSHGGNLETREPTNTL
Chain of UniProt P20338 (P20338 whole entry): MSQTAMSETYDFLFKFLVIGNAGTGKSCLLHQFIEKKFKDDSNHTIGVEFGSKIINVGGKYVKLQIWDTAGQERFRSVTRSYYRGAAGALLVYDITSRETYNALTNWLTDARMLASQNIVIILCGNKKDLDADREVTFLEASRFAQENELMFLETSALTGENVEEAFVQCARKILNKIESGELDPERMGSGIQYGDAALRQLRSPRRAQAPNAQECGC

Regarding “GRASP1 S73N (intellectual disability mutant) (from UniProt Q8VD04 1-806) (natural protein)”, the GRASP1 co-precipitated with GRIP1, % WT in the assay with GFP-tagged GRIP1 was determined as 206 % WT. Also, in the assay with GFP-tagged Rab4, the GRASP1 co-precipitated with Rab4, % WT was found to be 98.2 % WT. The substance further registered a GRASP1 co-precipitated with Stx13, % WT in assay [1] of 553 % WT.

Turning to “GRASP1 GBD deletion mutant (dGBD) (from UniProt Q8VD04 1-806) (natural protein)”, the GRASP1 co-precipitated with GRIP1, % WT in the assay with GFP-tagged GRIP1 stood at 42.6 % WT. This substance had a GRASP1 co-precipitated with Rab4, % WT with GFP-tagged Rab4 of 34.8 % WT. For the same substance, the GRASP1 co-precipitated with Stx13, % WT in assay [1] was determined as 62.7 % WT.

In turn, “GRASP1 R822Q (intellectual disability mutant) (from UniProt Q8VD04 1-806) (natural protein)” returned a GRASP1 co-precipitated with GRIP1, % WT with GFP-tagged GRIP1 of 43.7 % WT. The GRASP1 co-precipitated with Rab4, % WT with GFP-tagged Rab4 was found to be 105 % WT. The same substance had a GRASP1 co-precipitated with Stx13, % WT in assay [1] of 83.2 % WT.
